Measurements published in article PMC11306496, “Myosin Va-dependent Transport of NMDA Receptors in Hippocampal Neurons” (Neuroscience Bulletin, 2024).

Biological target: T1, myosin Va (rat (endogenous in hippocampus), UniProt Q9QYF3 1-1828)
T1 construct: myosin Va, rat, endogenous in hippocampus; also called MyoVa; source: endogenous, rat hippocampal homogenate
Experiment: co-IP; total rat hippocampal lysates with primary antibody and Protein A/G agarose, 4°C; buffer pH 7.4, 0.05 mol/L HEPES, 0.15 mol/L NaCl, 0.5% NP-40, 1% Triton X-100; non-immune IgG as control; slices untreated or treated with PMA (0.5 umol/L, 10 min) and/or AIP (1 umol/L)
Conditions: partners not purified

T1 sequence (Q9QYF3 whole entry): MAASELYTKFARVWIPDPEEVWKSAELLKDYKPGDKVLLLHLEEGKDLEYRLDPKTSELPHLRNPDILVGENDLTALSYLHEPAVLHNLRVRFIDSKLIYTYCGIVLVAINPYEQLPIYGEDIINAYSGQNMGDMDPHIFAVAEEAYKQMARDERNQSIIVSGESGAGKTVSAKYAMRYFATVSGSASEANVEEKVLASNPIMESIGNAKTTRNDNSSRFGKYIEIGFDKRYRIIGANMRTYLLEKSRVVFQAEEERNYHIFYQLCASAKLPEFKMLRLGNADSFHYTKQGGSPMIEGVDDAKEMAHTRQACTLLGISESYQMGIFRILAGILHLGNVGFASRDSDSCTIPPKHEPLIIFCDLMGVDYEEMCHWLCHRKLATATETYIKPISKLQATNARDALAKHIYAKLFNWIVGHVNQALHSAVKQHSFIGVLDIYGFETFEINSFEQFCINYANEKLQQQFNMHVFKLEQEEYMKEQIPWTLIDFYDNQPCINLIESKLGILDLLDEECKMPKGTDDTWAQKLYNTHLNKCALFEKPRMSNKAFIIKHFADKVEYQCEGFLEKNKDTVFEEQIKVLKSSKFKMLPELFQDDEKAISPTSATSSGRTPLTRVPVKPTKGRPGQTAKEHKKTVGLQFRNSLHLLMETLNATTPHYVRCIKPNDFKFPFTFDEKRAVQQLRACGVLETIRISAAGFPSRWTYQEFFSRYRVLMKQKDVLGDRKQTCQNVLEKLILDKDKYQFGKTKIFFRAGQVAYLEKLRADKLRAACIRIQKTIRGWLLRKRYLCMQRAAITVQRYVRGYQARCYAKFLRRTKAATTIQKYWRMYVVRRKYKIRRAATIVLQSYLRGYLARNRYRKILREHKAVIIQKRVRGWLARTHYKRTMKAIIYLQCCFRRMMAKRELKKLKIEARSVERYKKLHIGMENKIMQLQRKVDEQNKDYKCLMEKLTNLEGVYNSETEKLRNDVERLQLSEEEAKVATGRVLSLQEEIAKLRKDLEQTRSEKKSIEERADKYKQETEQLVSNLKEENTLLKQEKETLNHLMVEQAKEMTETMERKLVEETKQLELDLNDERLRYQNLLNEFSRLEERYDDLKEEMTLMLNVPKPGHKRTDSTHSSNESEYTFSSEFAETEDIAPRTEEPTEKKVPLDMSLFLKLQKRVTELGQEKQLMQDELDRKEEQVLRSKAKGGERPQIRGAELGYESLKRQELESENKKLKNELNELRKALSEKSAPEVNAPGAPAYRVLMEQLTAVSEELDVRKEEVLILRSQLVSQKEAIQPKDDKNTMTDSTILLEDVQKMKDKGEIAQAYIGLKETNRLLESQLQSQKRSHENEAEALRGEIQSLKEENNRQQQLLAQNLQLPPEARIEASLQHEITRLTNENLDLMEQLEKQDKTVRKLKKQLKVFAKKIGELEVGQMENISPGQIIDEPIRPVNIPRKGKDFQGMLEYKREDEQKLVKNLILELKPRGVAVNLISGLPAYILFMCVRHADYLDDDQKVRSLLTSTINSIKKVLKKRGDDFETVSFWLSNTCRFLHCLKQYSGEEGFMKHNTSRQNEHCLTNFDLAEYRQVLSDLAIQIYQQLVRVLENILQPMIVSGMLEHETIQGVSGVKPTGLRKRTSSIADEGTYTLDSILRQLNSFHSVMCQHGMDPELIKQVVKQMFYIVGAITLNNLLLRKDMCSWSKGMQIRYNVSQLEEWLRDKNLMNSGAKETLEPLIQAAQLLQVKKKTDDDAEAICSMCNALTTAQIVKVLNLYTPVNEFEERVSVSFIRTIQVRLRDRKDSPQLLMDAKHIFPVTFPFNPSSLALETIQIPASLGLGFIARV

co-IP signal with PMA, normalised to control (IP with anti-MyoVa): 1.59 fold of control
B1: NMDA receptor subunit GluN2A (receptor)
chain: not shown
notes: NMDA receptor subunit GluN2A, rat, endogenous in hippocampus; source: endogenous, rat hippocampal homogenate (slices or cultured hippocampal neurons)
